Biological target: human Tau P301S from brain of P301S Tau transgenic mice (human) (UniProt P10636)
Assay: cell-based or functional assay

Sequence of human Tau P301S from brain of P301S Tau transgenic mice (human) (P10636 other isoform, or with tags, fused parts or gaps P301S P301S P301S P301S): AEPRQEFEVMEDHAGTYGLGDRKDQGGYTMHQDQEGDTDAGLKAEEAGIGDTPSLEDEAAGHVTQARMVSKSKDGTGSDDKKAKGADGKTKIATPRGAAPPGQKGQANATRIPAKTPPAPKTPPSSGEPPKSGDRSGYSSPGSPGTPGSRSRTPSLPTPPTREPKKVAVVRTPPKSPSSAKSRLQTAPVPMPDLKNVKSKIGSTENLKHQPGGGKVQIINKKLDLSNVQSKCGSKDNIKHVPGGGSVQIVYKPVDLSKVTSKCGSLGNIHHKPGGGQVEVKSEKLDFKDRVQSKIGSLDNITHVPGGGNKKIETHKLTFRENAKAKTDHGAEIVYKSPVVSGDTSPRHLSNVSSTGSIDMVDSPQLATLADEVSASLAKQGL

B1: AB1 having a rat VL of SEQ ID NO: 7 and a rat VH of SEQ ID NO.:8 (antibody, IgG1, V domains shown)
VH: EVKLEESGPGLMQPSETLSLTCTVSGFSLTSNDIAWVRQPLGKGLVWMGTIWTDGSTNYNSAVQSRLSISRDTSKSQFFLKMNSLQPEDTGTYYCARHRLYYGAFDYWGQGTMVTVS
VL: DIVMTQTPVSLSVTLGDQASISCRSSQSLEYSDGYTYLEWYLQKPGQSPQLLIYEVSNRFSGVPDRFIGSGSGTDFTLKISRVEPEDLGVYYCFQATHNPYTFGAGTKLEIK
B1 was tested, and the IC50 (cellular Tau aggregation assay) was 2 nM and the Imax (maximal efficacy at 300 nM, cellular Tau aggregation assay) was 93%.
